We go through one molecule from patent US20050287164A1 (INHIBITEX, published 2005).

The experiment has as its target T1, Clf40 (A domain of ClfA, AA 40-559, recombinant, six-histidine fusion) (Staphylococcus aureus strain Newman, UniProt Q53653 40-559).
T1 construct: also called ClfA 40
T1 sequence: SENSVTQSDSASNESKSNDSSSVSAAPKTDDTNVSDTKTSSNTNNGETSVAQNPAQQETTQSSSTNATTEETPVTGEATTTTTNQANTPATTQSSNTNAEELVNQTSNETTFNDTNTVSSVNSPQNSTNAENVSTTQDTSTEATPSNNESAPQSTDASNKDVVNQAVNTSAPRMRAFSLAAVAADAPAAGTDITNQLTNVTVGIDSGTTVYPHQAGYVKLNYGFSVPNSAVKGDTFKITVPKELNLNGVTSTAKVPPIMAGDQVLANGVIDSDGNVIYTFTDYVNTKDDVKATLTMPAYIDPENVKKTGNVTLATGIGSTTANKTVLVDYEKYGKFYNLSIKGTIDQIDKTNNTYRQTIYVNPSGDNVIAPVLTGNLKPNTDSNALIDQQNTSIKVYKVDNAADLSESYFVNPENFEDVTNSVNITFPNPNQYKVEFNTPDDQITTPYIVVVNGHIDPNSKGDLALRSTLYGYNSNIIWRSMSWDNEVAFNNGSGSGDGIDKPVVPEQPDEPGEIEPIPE
The experiment can be described thus: Biacore 3000, Mab captured by rabbit anti-mouse Fc, Clf protein in flow. (SPR reads the build-up and loss of mass on a sensor chip optically.)

B1: Monoclonal antibody 12-9 (antibody, V domains shown)
VH: QVQLKESGPGLVAPSQSLSITCAISGFSLSRYSVHWVRQPPGKGLEWLGMIWGGGNTDYNSALKSRLSISKDNSKSQVFLKMNSLQTDDTAMYYCARKGEFYYGYDGFVYWGQGTLVTVSA
VL: NIMMTQSPSSLAVSAGEKVTMSCKSSQSVLYSSNQKNYLAWYQQKPGQSPKLLIYWASTRESGVPDRFTGSGSGTDFTLTISSVQAEDLAVYYCHQYLSSYTFGGGTKLEIK
notes: also called F12-9; Mab 12-9
For B1, the kon came to 774000 M⁻¹ s⁻¹.

As a reminder, the kon is the rate constant with which the complex forms.
